Laboratory results from PMC3606643.

Experiments:
[1] = target: T1, HNF4α ΔABΔF (DBD-hinge-LBD) (human, UniProt P41235-2 55-377); test: fluorescence anisotropy
T1 sequence: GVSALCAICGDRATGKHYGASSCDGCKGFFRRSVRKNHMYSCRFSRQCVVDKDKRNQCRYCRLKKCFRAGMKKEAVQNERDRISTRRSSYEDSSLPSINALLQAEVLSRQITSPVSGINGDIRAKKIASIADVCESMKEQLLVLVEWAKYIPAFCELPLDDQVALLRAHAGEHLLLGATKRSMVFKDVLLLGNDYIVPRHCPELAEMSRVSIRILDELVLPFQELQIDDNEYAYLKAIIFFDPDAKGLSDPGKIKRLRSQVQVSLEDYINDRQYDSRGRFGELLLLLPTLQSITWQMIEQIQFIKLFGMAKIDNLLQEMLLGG

[2] = target: T2, HNF4α DBD (DBD-hinge) (human, UniProt P41235-2 55-135); test: fluorescence anisotropy
T2 sequence: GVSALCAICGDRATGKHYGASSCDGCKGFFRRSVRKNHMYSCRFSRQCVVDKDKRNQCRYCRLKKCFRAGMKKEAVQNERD

B1: DR1 (5'-fluorescein top strand) (dsDNA)
DNA 1: GGAACTAGGTCAAAGGTCAG
DNA 2: CCTGACCTTTGACCTAGTTC
[1]
  Kd: 0.082 µM
[2]
  Kd: ~6 µM
